Assay results as given in publication PMC11117068 (2024).

What was measured:
complement C3b [1] = target: T1, complement C3b (UniProt P01024 749-1663; P01024 749-1663); test: SPR
complement C3b [2] = target: T1, complement C3b; test: SPR; remark: listed apart in the source

T1 sequence (P01024 23-667, chain 1 of 2): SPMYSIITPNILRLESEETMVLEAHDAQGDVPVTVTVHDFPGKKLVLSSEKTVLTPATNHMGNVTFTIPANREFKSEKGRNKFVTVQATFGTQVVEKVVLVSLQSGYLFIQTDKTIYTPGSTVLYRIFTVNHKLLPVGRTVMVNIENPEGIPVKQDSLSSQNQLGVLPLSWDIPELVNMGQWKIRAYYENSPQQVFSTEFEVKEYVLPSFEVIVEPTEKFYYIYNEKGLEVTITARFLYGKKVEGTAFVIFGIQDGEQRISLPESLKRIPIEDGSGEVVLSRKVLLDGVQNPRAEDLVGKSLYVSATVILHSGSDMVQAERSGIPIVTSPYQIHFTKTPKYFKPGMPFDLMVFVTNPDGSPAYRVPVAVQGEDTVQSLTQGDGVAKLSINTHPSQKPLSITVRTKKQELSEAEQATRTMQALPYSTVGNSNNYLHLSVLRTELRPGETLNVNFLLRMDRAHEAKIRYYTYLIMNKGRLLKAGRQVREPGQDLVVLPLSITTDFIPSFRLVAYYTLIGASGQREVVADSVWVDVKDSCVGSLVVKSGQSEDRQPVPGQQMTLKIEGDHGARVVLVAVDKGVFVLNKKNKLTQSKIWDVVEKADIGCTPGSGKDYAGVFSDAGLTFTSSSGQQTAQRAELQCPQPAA
T1 sequence (P01024 749-1663, chain 2 of 2): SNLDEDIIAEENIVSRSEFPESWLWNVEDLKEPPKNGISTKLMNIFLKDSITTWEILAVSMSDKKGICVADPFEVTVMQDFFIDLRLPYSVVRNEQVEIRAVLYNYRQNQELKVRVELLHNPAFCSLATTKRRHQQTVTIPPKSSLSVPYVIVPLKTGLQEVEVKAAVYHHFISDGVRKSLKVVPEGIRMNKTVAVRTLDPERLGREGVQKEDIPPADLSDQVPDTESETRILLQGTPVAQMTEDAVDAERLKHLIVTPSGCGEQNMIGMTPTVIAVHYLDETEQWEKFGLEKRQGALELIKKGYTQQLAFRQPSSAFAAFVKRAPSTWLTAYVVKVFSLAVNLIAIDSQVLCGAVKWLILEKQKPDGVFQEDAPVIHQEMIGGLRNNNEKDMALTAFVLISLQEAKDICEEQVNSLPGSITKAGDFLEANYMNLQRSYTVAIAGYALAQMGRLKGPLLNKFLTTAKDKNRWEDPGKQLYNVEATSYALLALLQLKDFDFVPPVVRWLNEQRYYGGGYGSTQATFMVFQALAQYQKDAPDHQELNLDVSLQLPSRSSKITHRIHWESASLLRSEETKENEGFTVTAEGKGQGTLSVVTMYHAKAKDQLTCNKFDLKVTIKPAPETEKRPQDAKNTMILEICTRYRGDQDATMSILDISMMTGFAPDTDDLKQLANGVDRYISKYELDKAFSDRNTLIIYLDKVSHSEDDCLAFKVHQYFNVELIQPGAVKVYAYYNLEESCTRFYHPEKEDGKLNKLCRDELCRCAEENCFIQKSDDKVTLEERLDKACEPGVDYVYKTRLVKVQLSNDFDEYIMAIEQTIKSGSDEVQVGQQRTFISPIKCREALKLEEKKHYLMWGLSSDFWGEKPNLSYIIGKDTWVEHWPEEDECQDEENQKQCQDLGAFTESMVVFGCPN

B1: serum-derived human factor H (sd-FH) (natural protein)
chain: EDCNELPPRRNTEILTGSWSDQTYPEGTQAIYKCRPGYRSLGNVIMVCRKGEWVALNPLRKCQKRPCGHPGDTPFGTFTLTGGNVFEYGVKAVYTCNEGYQLLGEINYRECDTDGWTNDIPICEVVKCLPVTAPENGKIVSSAMEPDREYHFGQAVRFVCNSGYKIEGDEEMHCSDDGFWSKEKPKCVEISCKSPDVINGSPISQKIIYKENERFQYKCNMGYEYSERGDAVCTESGWRPLPSCEEKSCDNPYIPNGDYSPLRIKHRTGDEITYQCRNGFYPATRGNTAKCTSTGWIPAPRCTLKPCDYPDIKHGGLYHENMRRPYFPVAVGKYYSYYCDEHFETPSGSYWDHIHCTQDGWSPAVPCLRKCYFPYLENGYNQNYGRKFVQGKSIDVACHPGYALPKAQTTVTCMENGWSPTPRCIRVKTCSKSSIDIENGFISESQYTYALKEKAKYQCKLGYVTADGETSGSITCGKDGWSAQPTCIKSCDIPVFMNARTKNDFTWFKLNDTLDYECHDGYESNTGSTTGSIVCGYNGWSDLPICYERECELPKIDVHLVPDRKKDQYKVGEVLKFSCKPGFTIVGPNSVQCYHFGLSPDLPICKEQVQSCGPPPELLNGNVKEKTKEEYGHSEVVEYYCNPRFLMKGPNKIQCVDGEWTTLPVCIVEESTCGDIPELEHGWAQLSSPPYYYGDSVEFNCSESFTMIGHRSITCIHGVWTQLPQCVAIDKLKKCKSSNLIILEEHLKNKKEFDHNSNIRYRCRGKEGWIHTVCINGRWDPEVNCSMAQIQLCPPPPQIPNSHNMTTTLNYRDGEKVSVLCQENYLIQEGEEITCKDGRWQSIPLCVEKIPCSQPPQIEHGTINSSRSSQESYAHGTKLSYTCEGGFRISEENETTCYMGKWSSPPQCEGLPCKSPPEISHGVVAHMSDSYQYGEEVTYKCFEGFGIDGPAIAKCLGEKWSHPPSCIKTDCLSLPSFENAIPMGEKKDVYKAGEQVTYTCATYYKMDGASNVTCINSRWTGRPTCRDTSCVNPPTVQNAYIVSRQMSKYPSGERVRYQCRSPYEMFGDEEVMCLNGNWTEPPQCKDSTGKCGPPPPIDNGDITSFPLSVYAPASSVEYQCQNLYQLEGNKRITCRNGQWSEPPKCLHPCVISREIMENYNIALRWTAKQKLYSRTGESVEFVCKRGYRLSSRSHTLRTTCWDGKLEYPTCAKR
modifications: native N-linked glycans, diantennary and a small number of triantennary sialylated glycans
Binder B1 has a Kd (complement C3b [1]) of 11.3 nM and a koff (complement C3b [2]) of 0.0233 s⁻¹.
